The assay addresses T1, CD19 on Nalm6-luc tumor cells (CD19+BCMA-) (UniProt P15391 20-556, limits assumed).
T1 sequence (looked up): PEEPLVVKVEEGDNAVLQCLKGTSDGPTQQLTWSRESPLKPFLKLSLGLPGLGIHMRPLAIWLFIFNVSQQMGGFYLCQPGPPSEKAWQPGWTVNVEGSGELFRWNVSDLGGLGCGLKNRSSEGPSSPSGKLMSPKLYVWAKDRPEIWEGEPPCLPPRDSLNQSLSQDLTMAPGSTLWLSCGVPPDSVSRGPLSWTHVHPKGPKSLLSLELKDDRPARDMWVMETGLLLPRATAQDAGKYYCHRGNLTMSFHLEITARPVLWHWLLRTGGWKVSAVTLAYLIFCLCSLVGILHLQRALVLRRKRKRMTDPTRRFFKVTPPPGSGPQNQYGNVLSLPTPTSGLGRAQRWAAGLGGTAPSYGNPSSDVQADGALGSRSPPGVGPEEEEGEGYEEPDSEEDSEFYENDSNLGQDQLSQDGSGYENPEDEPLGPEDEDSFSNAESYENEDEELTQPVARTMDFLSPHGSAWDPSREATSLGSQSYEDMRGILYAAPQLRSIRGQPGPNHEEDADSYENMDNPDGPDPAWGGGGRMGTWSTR
Briefly: cell-based or functional assay.

Data on 2 molecules can be found in patent publication US20260191957A1 (NOVATIM IMMUNE THERAPEUTICS ZHEJIANG, published 2026).

B1: B19 CAR (BCMA CAR and CD19-mutant CAR expressed in parallel on T cells) (other)
chain 1: DIVLTQSPPSLAMSLGKRATISCRASESVTILGSHLIHWYQQKPGQPPTLLIQLASNVQTGVPARFSGSGSRTDFTLTIDPVEEDDVAVYYCLQSRTIPRTFGGGTKLEIKGGGGSGGGGSGGGGSQIQLVQSGPELKKPGETVKISCKASGYTFTDYSINWVKRAPGKGLKWMGWINTETREPAYAYDFRGRFAFSLETSASTAYLQINNLKYEDTATYFCALDYSYAMDYWGQGTSVTVSSTTTPAPRPPTPAPTIASQPLSLRPEACRPAAGGAVHTRGLDFACDIYIWAPLAGTCGVLLLSLVITLYCKRGRKKLLYIFKQPFMRPVQTTQEEDGCSCRFPEEEEGGCELRVKFSRSADAPAYQQGQNQLYNELNLGRREEYDVLDKRRGRDPEMGGKPRRKNPQEGLYNELQKDKMAEAYSEIGMKGERRRGKGHDGLYQGLSTATKDTYDALHMQALPPR
chain 2: DIQMTQTTSSLSASLGDRVTISCRASQDISKYLNWYQQKPDGTVKLLIYHTSRLHSGVPSRFSGSGSGTDYSLTISNLEQEDIATYFCQQGNTLPYTFGGGTKLEITGGGGSGGGGSGGGGSEVKLQESGPGLVAPSQSLSVTCTVSGVSLPDYGVSWIRQPPRKGLEWLGVIWGSETTYYNSALKSRLTIIKDNSKSQVFLKMNSLQTDDTAIYYCAKHYYYGGSYAMDYWGQGTSVTVSSIEVMYPPPYLDNEKSNGTIIHVKGKHLCPSPLFPGPSKPFWVLVVVGGVLACYSLLVTVAFIIFWVRSKRSRLLHSDYMFMTPRRPGPTRKHYQPYAPPRDFAAYRSRVKFSRSADAPAYQQGQNQLYNELNLGRREEYDVLDKRRGRDPEMGGKPRRKNPQEGLYNELQKDKMAEAYSEIGMKGERRRGKGHDGLYQGLSTATKDTYDALHMQALPPR
On to B1, for which the “tumor cell killing rate, Nalm6-luc, E:T 1:8, 72 h luciferase assay” value is 71.8% and the “tumor cell killing rate, Nalm6-luc, E:T 1:16, 72 h luciferase assay” value came to 49%.

B2: B19-wildtype CAR (BCMA CAR and CD19-wildtype CAR expressed in parallel on T cells) (other)
chain 1: DIVLTQSPPSLAMSLGKRATISCRASESVTILGSHLIHWYQQKPGQPPTLLIQLASNVQTGVPARFSGSGSRTDFTLTIDPVEEDDVAVYYCLQSRTIPRTFGGGTKLEIKGGGGSGGGGSGGGGSQIQLVQSGPELKKPGETVKISCKASGYTFTDYSINWVKRAPGKGLKWMGWINTETREPAYAYDFRGRFAFSLETSASTAYLQINNLKYEDTATYFCALDYSYAMDYWGQGTSVTVSSTTTPAPRPPTPAPTIASQPLSLRPEACRPAAGGAVHTRGLDFACDIYIWAPLAGTCGVLLLSLVITLYCKRGRKKLLYIFKQPFMRPVQTTQEEDGCSCRFPEEEEGGCELRVKFSRSADAPAYQQGQNQLYNELNLGRREEYDVLDKRRGRDPEMGGKPRRKNPQEGLYNELQKDKMAEAYSEIGMKGERRRGKGHDGLYQGLSTATKDTYDALHMQALPPR
chain 2: DIQMTQTTSSLSASLGDRVTISCRASQDISKYLNWYQQKPDGTVKLLIYHTSRLHSGVPSRFSGSGSGTDYSLTISNLEQEDIATYFCQQGNTLPYTFGGGTKLEITGGGGSGGGGSGGGGSEVKLQESGPGLVAPSQSLSVTCTVSGVSLPDYGVSWIRQPPRKGLEWLGVIWGSETTYYNSALKSRLTIIKDNSKSQVFLKMNSLQTDDTAIYYCAKHYYYGGSYAMDYWGQGTSVTVSSIEVMYPPPYLDNEKSNGTIIHVKGKHLCPSPLFPGPSKPFWVLVVVGGVLACYSLLVTVAFIIFWVRSKRSRLLHSDYMNMTPRRPGPTRKHYQPYAPPRDFAAYRSRVKFSRSADAPAYQQGQNQLYNELNLGRREEYDVLDKRRGRDPEMGGKPRRKNPQEGLYNELQKDKMAEAYSEIGMKGERRRGKGHDGLYQGLSTATKDTYDALHMQALPPR
With B2, the “tumor cell killing rate, Nalm6-luc, E:T 1:8, 72 h luciferase assay” value is 55% and the “tumor cell killing rate, Nalm6-luc, E:T 1:16, 72 h luciferase assay” value was 30.6%.
